Laboratory results taken from PMC3020774 (The Journal of Biological Chemistry, 2010).

B2: recombinant ZHD5-MBP fusion protein (natural protein)
chain: MDMRSHEMIERRREDNGNNNGGVVISNIISTNIDDNCNGNNNNTRVSCNSQTLDHHQSKSPSSFSISAAAKPTVRYRECLKNHAASVGGSVHDGCGEFMPSGEEGTIEALRCAACDCHRNFHRKEMDGVGSSDLISHHRHHHYHHNQYGGGGGRRPPPPNMMLNPLMLPPPPNYQPIHHHKYGMSPPGGGGMVTPMSVAYGGGGGGAESSSEDLNLYGQSSGEGAGAAAGQMAFSMSSSKKRFRTKFTTDQKERMMDFAEKLGWRMNKQDEEELKRFCGEIGVKRQVFKVWMHNNKNNAKKPPTPTTTL

Experiments:
ZHD5-MBP = biological target: T1, ZHD5-MBP (UniProt Q9FRL5 1-309); experiment: EMSA
T1 sequence: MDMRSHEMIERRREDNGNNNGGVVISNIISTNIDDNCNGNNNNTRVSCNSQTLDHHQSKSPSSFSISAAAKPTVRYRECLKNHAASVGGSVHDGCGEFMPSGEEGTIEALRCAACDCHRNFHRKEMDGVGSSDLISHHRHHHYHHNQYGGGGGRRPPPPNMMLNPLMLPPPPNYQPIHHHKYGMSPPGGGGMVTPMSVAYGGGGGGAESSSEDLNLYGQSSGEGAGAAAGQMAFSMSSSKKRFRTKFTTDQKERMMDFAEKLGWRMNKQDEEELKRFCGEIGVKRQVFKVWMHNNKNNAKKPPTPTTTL

native gel or EMSA = biological target: the molecule itself; experiment: native gel or EMSA
[1] = biological target: B2; experiment: native gel or EMSA

B1: ATTA EMSA probe (dsDNA)
DNA 1: CAGTGTCTTGTAATTAAAAA
DNA 2: TTTTTAATTACAAGACACTG
ZHD5-MBP
  binding result: binds

## B2
Native gel or EMSA
  binding result: binds

B3: recombinant MIF1-GST fusion protein (natural protein)
chain: MMKKRQMVIKQRSRNSNTSSSWTTTSSSSSSSEISNVRYVECQKNHAANIGGYAVDGCREFMAAGVEGTVDALRCAACGCHRNFHRKEVDTEVVCEYSPPNA
[1]
  binding result: binds
